In patent US7326551B2, “Cloning and sequencing of pyruvate decarboxylase (PDC) genes from bacteria and uses therefor” (University of Florida Research Foundation, Inc., priority 2001, dated 2008) one finds Km data, which are given here for three proteins.

What all share (test): PDC activity by ADH-coupled assay, kinetic parameters for pyruvate
Substrate in data set [1]: CC(=O)C(=O)O
The data set is classed as biochemical, Zymomonas mobilis. To be noted: other: ZmoPDC. On the procedure: All procedures were performed at room temperature and all purification buffers contained 1 mM TPP and 1 mM MgCl2 unless otherwise indicated. S. ventriculi PDC was purified from recombinant E. coli BL21-CodonPlus-RIL(pJAM419) and Rosetta (DE3)(pRARE, pJAM419) as previously described (45). Z. mobilis PDC was purified from recombinant E. coli DH5α (pLOI276) (11) using thermal treatment, Q-Sepharose, and Superdex 200 procedures as described below for the Z. palmae PDC with the exception that the Z. mobilis PDC was eluted from Q-Sepharose at 0.22 to 0.32 M NaCl.
(§1) PDC Quantitation and Enzyme Activity Assay—Polypeptide concentration was determined using Bradford reagent with bovine serum albumin as the standard (BioRad). PDC activity was measured by the coupled assay with baker's yeast alcohol dehydrogenase (ADH) (Sigma-Aldrich, St. Louis, Mo.) as previously described (11). The reaction mixture contained 0.15 mM NADH, 5 mM MgCl2, 0.1 mM TPP, 5 mM pyruvate, and 10 U ADH in 50 mM sodium citrate buffer at pH 5.0 and was measured at 25° C. unless otherwise indicated. One unit of enzyme activity is defined as the amount of enzyme that generates 1 μmol of acetaldehyde per min.
(§2) As a further comparison, the kinetic constants of all four bacterial PDC polypeptides were determined at their pH optimum as well as at pH 7.0 (Table 3). […]

Substrate in data set [2]: CC(=O)C(=O)O
The data set is classed as biochemical, Acetobacter pasteurianus. The settings on record: other: ApaPDC.
Description: (ii) Purification of A. pasteurianus PDC—PDC was purified from A. pasteurianus and E. coli ER1648(pJAM304) using heat-treatment, Q-Sepharose, Superdex 200, and hydroxyapatite as described for the Z. palmae PDC with the following modifications. Cells were passed through a French pressure cell at 30,000 lb per in^2. The PDC activity, which was eluted at 0.17 to 0.26 M NaCl from the Q-Sepharose column, was pooled and concentrated by dialysis against PEG8000 prior to loading onto the Superdex 200 column.
as §1, §2

Substrate in data set [3]: CC(=O)C(=O)O
The data set is classed as biochemical, Zymobacter palmae. To be noted: other: ZpaPDC. On the procedure:
(i) Purification of Z. palmae PDC—Z. palmae and E. coli DH5α (pJAM3440) cells were grown to stationary phase and harvested by centrifugation at 10,000×g (10 min, 4° C.). Cells (12 to 15 g wet wt) were resuspended in 6 volumes of 50 mM sodium phosphate buffer at pH 6.5 containing 1 mM TPP and 1 mM MgCl2 (buffer A) and passed through a chilled French pressure cell at 20,000 lb per in^2. Cell debris was removed by centrifugation at 16,000×g (20 min, 4° C.). Cell lysate was heated to 60° C. for 30 min, chilled on ice for 15 min, and centrifuged at 16,000×g (30 min at 4° C.) to remove denatured polypeptides. […]
PDC Quantitation and Enzyme Activity Assay—Polypeptide concentration was determined using Bradford reagent with bovine serum albumin as the standard (BioRad). PDC activity was measured by the coupled assay with baker's yeast alcohol dehydrogenase (ADH) (Sigma-Aldrich, St. Louis, Mo.) as previously described (11). The reaction mixture contained 0.15 mM NADH, 5 mM MgCl2, 0.1 mM TPP, 5 mM pyruvate, and 10 U ADH in 50 mM sodium citrate buffer at pH 5.0 and was measured at 25° C. unless otherwise indicated. […]
as §2

The mark [4] stands for this setting: pH 7.0, normal Michaelis-Menten kinetics, pH 7.0, 25.0 °C.

B1: Zymomonas mobilis pyruvate decarboxylase (ZmoPDC), recombinant, wild type, SEQ ID NO:8 (Zymomonas mobilis subsp. mobilis ZM4 = ATCC 31821) (protein)
chain: MSYTVGTYLAERLVQIGLKHHFAVAGDYNLVLLDNLLLNKNMEQVYCCNELNCGFSAEGYARAKGAAAAVVTYSVGALSAFDAIGGAYAENLPVILISGAPNNNDHAAGHVLHHALGKTDYHYQLEMAKNITAAAEAIYTPEEAPAKIDHVIKTALREKKPVYLEIACNIASMPCAAPGPASALFNDEASDEASLNAAVEETLKFIANRDKVAVLVGSKLRAAGAEEAAVKFADALGGAVATMAAAKSFFPEENPHYIGTSWGEVSYPGVEKTMKEADAVIALAPVFNDYSTTGWTDIPDPKKLVLAEPRSVVVNGVRFPSVHLKDYLTRLAQKVSKKTGALDFFKSLNAGELKKAAPADPSAPLVNAEIARQVEALLTPNTTVIAETGDSWFNAQRMKLPNGARVEYEMQWGHIGWSVPAAFGYAVGAPERRNILMVGDGSFQLTAQEVAQMVRLKLPVIIFLINNYGYTIEVMIHDGPYNNIKNWDYAGLMEVFNGNGGYDSGAGKGLKAKTGGELAEAIKVALANTDGPTLIECFIGREDCTEELVKWGKRVAAANSRKPVNKLL
notes: coupled test with yeast ADH
On to B1, for which the Km (in general, the substrate concentration at which the rate is half of its maximum) in data set [1] (pH 6.0, normal Michaelis-Menten kinetics, pH 6.0, 25.0 °C) was 430 µM; in data set [1] (setting [4]) it was 940 µM.

B2: Acetobacter pasteurianus pyruvate decarboxylase (ApaPDC), recombinant, wild type, SEQ ID NO:4 (Acetobacter pasteurianus) (protein)
chain: MTYTVGMYLAERLVQIGLKHHFAVGGDYNLVLLDQLLLNKDMKQIYCCNELNCGFSAEGYARSNGAAAAVVTFSVGAISAMNALGGAYAENLPVILISGAPNSNDQGTGHILHHTIGKTDYSYQLEMARQVTCAAESITDAHSAPAKIDHVIRTALRERKPAYLDIACNIASEPCVRPGPVSSLLSEPEIDHTSLKAAVDATVALLKNRPAPVMLLGSKLRAANALAATETLADKLQCAVTIMAAAKGFFPEDHAGFRGLYWGEVSNPGVQELVETSDALLCIAPVFNDYSTVGWSGMPKGPNVILAEPDRVTVDGRAYDGFTLRAFLQALAEKAPARPASAQKSSVPTCSLTATSDEAGLTNDEIVRHINALLTSNTTLVAETGDSWFNAMRMTLAGARVELEMQWGHIGWSVPSAFGNAMGSQDRQHVVMVGDGSFQLTAQEVAQMVRYELPVIIFLINNRGYVIEIAIHDGPYNYIKNWDYAGLMEVFNAGEGHGLGLKATTPKELTEAIARAKANTRGPTLIECQIDRTDCTDMLVQWGRKVASTNARKTTLA
notes: coupled test with yeast ADH
Turning to B2, the Km was found to be 390 µM in data set [2] (pH 5.0, 25° C., normal Michaelis-Menten kinetics, pH 5.0) and 5100 µM in data set [2] (setting [4]).

B3: Zymobacter palmae pyruvate decarboxylase (ZpaPDC), recombinant, wild type, SEQ ID NO:2 (Zymobacter palmae) (protein)
chain: MYTVGMYLAERLAQIGLKHHFAVAGDYNLVLLDQLLLNKDMEQVYCCNELNCGFSAEGYARARGAAAAIVTFSVGAISAMNAIGGAYAENLPVILISGSPNTNDYGTGHILHHTIGTTDYNYQLEMVKHVTCARESIVSAEEAPAKIDHVIRTALRERKPAYLEIACNVAGAECVRPGPINSLLRELEVDQTSVTAAVDAAVEWLQDRQNVVMLVGSKLRAAAAEKQAVALADRLGCAVTIMAAEKGFFPEDHPNFRGLYWGEVSSEGAQELVENADAILCLAPVFNDYATVGWNSWPKGDNVMVMDTDRVTFAGQSFEGLSLSTFAAALAEKAPSRPATTQGTQAPVLGIEAAEPNAPLTNDEMTRQIQSLITSDTTLTAETGDSWFNASRMPIPGGARVELEMQWGHIGWSVPSAFGNAVGSPERRHIMMVGDGSFQLTAQEVAQMIRYEIPVIIFLINNRGYVIEIAIHDGPYNYIKNWNYAGLIDVFNDEDGHGLGLKASTGAELEGAIKKALDNRRGPTLIECNIAQDDCTETLIAWGKRVAATNSRKPQA
notes: coupled test with yeast ADH
With B3, the Km in data set [3] (pH 6.0, 25° C., normal Michaelis-Menten kinetics, pH 6.0, 25.0 °C) was 240 µM; in data set [3] (pH 7.0, normal Michaelis-Menten kinetics, pH 7.0) it was 710 µM.
